Results published in paper PMC9684487, “Human antibody recognition and neutralization mode on the NTD and RBD domains of SARS-CoV-2 spike protein” (Scientific Reports, 2022).

Tests used:
Conditions in all cases: both partners purified
[1] = target: T1, SARS-CoV-2 S protein (ECD, His and Flag Tag) (GenScript) (SARS-CoV-2, wild type (Wuhan-Hu-1 …, UniProt P0DTC2)); assay: SPR
T1 construct: source: bought: GenScript

[2] = target: NTD + RBD (aa 13–541) of the SARS-CoV-2 S protein (SARS-CoV-2, wild type (Wuhan-Hu-1 …, UniProt P0DTC2)); assay: ELISA
[3] = target: T2, recombinant S ECD protein (aa 13–1208) of SARS-CoV-2 (SARS-CoV-2, UniProt P0DTC2); assay: ELISA
T2 construct: also called S protein; extracellular domain of the S protein

[4] = target: T3, S1 (aa 13–685) of the SARS-CoV-2 S protein (SARS-CoV-2, wild type (Wuhan-Hu-1 …, UniProt P0DTC2)); assay: ELISA
T3 construct: also called subunit 1

Row | Binder | Kd [1] [nM] | koff [1] [s⁻¹] | kon [1] [M⁻¹ s⁻¹] | binding result [2] | binding result [3] | binding result [4]
1 | NIBIC-71 (antibody, V domains shown, also called recombinant mAb NIBIC-71) VH: EVQLVESGGGLIQPGGSLRLSCEASGLIVSSNYMTWVRQAPGKGLEWVSVIYSGGSTFYADSVKGRFTVSRDNSKNTLYLQMNNLSPEDTAVYYCARDLGPYGVDVWGQGTTVTVSS VL: AIQLTQSPSSLSASVGDRVTITCRASQGISSYLAWYQQTPGKAPKLLIYAASTLQSGVPSRFSGSGSGTDFTLTISSLQPEDFATYYCQQLNSYPPFTFGPGTKVDIK | 1.33 | 6.35e-05 | 47700 | – | – | –
2 | 7G7/κ (antibody, V domains shown, also called 7G7-IgG1κ; 7G7/κ (IgG1/Igκ); source: Expi293F, cotransfected with IgH and IgL vectors, purified (HiTrap Protein G)) VH: QVQLVESGGGVVQPGRSLRLSCIASGFTFRNYAMYWVRQAPGKGLEWVAVIWYDGSNKFYTDSVKGRFTISRDNSKNSLYLQMNSLRAEDTAVYFCARDQGFGDNYYYYGMDVWGQGTTVTVSS VL: SYELTQPPSVSVSPGQTARISCSGDALPKEYAYWYQQKPGQAPVLVIYKDSERPSGIPERFSGSSSGTTVTLTISGVQAEDEADYYCQLADSSMHYVVFGGGTKLTVL | – | – | – | binds | binds | binds
3 | 7G7/λ (antibody, V domains shown, also called 7G7 (7G7/λ); IgG1/Igλ2; source: Expi293F, cotransfected with IgH and IgL vectors, purified (HiTrap Protein G)) VH: QVQLVESGGGVVQPGRSLRLSCIASGFTFRNYAMYWVRQAPGKGLEWVAVIWYDGSNKFYTDSVKGRFTISRDNSKNSLYLQMNSLRAEDTAVYFCARDQGFGDNYYYYGMDVWGQGTTVTVSS VL: SYELTQPPSVSVSPGQTARISCSGDALPKEYAYWYQQKPGQAPVLVIYKDSERPSGIPERFSGSSSGTTVTLTISGVQAEDEADYYCQLADSSMHYVVFGGGTKLTVL | – | – | – | – | binds | –
